Experimental data published in US7087393.

Target: rabbit anti-CS198 peptide antiserum raised against the unconjugated peptide of SEQUENCE ID NO 44 (13 week bleed)
Experiment: Western blot competition: antiserum pre-incubated overnight at 4 C with varying concentrations of peptide immunogen before exposure to the filter carrying the 45 kD band

RLQKSQSSDLLERERESVLRREQEVAEERRN [CS198 synthetic peptide of SEQUENCE ID NO 44]
concentration of peptide at which antibody binding to the band was inhibited: 2.6 µM
